Reference: patent US6750046

B1: Arabidopsis oleosin/hirudin fusion (protein, part only; not given: Factor Xa cleavage junction, Hirudo medicinalis, not shown: small tags and cut ends)
chain, part: MADTARGTHHDIIGRDQYPMMGRDRDQYQMSGRGSDYSKSRQIAKAATAVTAGGSLLVLSSLTLVGTVIALTVATPLLVIFSPILVPALITVALLITGFLSSGGFGIAAITVFSWIYKYATGEHPQGSDKLDSARMKLGSKAQDLKDRAQYYGQQHTGGEHDRDRTRGGQHTT

Target: thrombin
Experiment: cell-based or functional assay
Settings: for Antithrombin Units per mg Oil Body Proteins: scale: antithrombin units per mg oil body protein; for Thrombin Units Per Assay: scale: thrombin units per assay

| Molecule | Antithrombin Units per mg Oil Body Proteins | Thrombin Units Per Assay |
| --- | --- | --- |
| hirudin released from the oleosin/hirudin fusion by Factor Xa | 0.55 | 0.0065 |
| B1 | < 0.001 | 0.14 |
